Consider 13 molecules from patent US20180155451A1 (published 2018).

Where two headings read alike, the source gives them in different places.

Assay [1] addresses T1, FcγRIa (human, UniProt P12314 16-292).
T1 construct: extracellular domain; also called FcgRI; 1a; not shown: His tag at the C terminus
Kind of assay: SPR (Biacore); He/Con_1a (FcγRIa) divided by He/Con_2b (FcγRIIb).

The target of assay [2] is T1, FcγRIa. Kind of assay: SPR (Biacore), antibody captured, FcγR as analyte; binding as % of GpH7-A5/GpH7-B3/GpL16-k0. On the technique in general: SPR reads the build-up and loss of mass on a sensor chip optically.
Assay [3] addresses T2, FcγRIIb (human, UniProt P31994 43-217).
T2 construct: extracellular domain; also called FcgRIIb; 2b; not shown: His tag at the C terminus
T2 sequence (looked up): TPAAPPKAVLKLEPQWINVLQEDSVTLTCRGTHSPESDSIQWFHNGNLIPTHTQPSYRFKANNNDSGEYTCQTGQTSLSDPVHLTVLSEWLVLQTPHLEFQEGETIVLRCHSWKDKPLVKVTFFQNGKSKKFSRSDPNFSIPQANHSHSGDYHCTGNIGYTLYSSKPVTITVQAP
The description is as above.

Assay [4] deals with T1, FcγRIa. The description is as above. The source holds these as a separate data set.
Assay [5] addresses T2, FcγRIIb. Described as above. The source holds these as a separate data set.

T1 sequence (P12314 16-292): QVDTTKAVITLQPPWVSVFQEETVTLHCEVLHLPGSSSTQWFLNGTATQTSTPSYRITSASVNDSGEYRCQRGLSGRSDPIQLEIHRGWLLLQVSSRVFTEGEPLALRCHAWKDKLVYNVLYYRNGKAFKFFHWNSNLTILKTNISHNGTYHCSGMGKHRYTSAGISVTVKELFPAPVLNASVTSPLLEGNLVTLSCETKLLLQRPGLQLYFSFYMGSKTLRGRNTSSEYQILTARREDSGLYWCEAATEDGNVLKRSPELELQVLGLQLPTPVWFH

B1: GpH7-A5/GpH7-B3 variant L328_02A/GpL16-k0 (antibody, human IgG1, kappa)
heavy 1: not shown
heavy 2: not shown
light: DIVMTQSPLSLPVTPGEPASISCQASESLVHSNRNTYLHWYLQKPGQSPQLLIYKVSNRFSGVPDRFSGSGSGTDFTLKISRVEAEDVGVYYCSQNTHVPPTFGQGTKVEIERTVAAPSVFIFPPSDEQLKSGTASVVCLLNNFYPREAKVQWKVDNALQSGNSQESVTEQDSKDSTYSLSSTLTLSKADYEKHKVYACEVTHQGLSSPVTKSFNRGEC
notes: heterodimerized IgG1; alteration in the GpH7-B3 H chain only; also called He Ab
For B1, the “Ia/IIb He_1a/2b” value with FcγRIa [1] came to 0.68 ratio. Moreover, the He/Con_1a with FcγRIa [2] and with FcγRIa [4] was 98.5 % of control each time. The He/Con_2b with FcγRIIb [3] and with FcγRIIb [5] was 144 % of control throughout.

B2: GpH7-A5/GpH7-B3 variant L328_06M/GpL16-k0 (antibody, human IgG1, kappa)
heavy 1: not shown
heavy 2: not shown
light: DIVMTQSPLSLPVTPGEPASISCQASESLVHSNRNTYLHWYLQKPGQSPQLLIYKVSNRFSGVPDRFSGSGSGTDFTLKISRVEAEDVGVYYCSQNTHVPPTFGQGTKVEIERTVAAPSVFIFPPSDEQLKSGTASVVCLLNNFYPREAKVQWKVDNALQSGNSQESVTEQDSKDSTYSLSSTLTLSKADYEKHKVYACEVTHQGLSSPVTKSFNRGEC
notes: as for B1
For the molecule B2, the “Ia/IIb He_1a/2b” value with FcγRIa [1] was determined as 0.7 ratio. In addition, the He/Con_1a in the assay with FcγRIa [2] and with FcγRIa [4] was 98.7 % of control each time. Also, the He/Con_2b in the assay with FcγRIIb [3] and with FcγRIIb [5] was 142 % of control each time.

B3: GpH7-A5/GpH7-B3 variant N325_07I/GpL16-k0 (antibody, human IgG1, kappa)
heavy 1: not shown
heavy 2: not shown
light: DIVMTQSPLSLPVTPGEPASISCQASESLVHSNRNTYLHWYLQKPGQSPQLLIYKVSNRFSGVPDRFSGSGSGTDFTLKISRVEAEDVGVYYCSQNTHVPPTFGQGTKVEIERTVAAPSVFIFPPSDEQLKSGTASVVCLLNNFYPREAKVQWKVDNALQSGNSQESVTEQDSKDSTYSLSSTLTLSKADYEKHKVYACEVTHQGLSSPVTKSFNRGEC
notes: as for B1
For B3, in the assay with FcγRIa [1], the “Ia/IIb He_1a/2b” value was 0.55 ratio. Besides, the He/Con_1a with FcγRIa [4] was 94.8 % of control. Besides, the He/Con_2b with FcγRIIb [5] was 171 % of control.

B4: GpH7-A5/GpH7-B3 variant L328_09D/GpL16-k0 (antibody, human IgG1, kappa)
heavy 1: not shown
heavy 2: not shown
light: DIVMTQSPLSLPVTPGEPASISCQASESLVHSNRNTYLHWYLQKPGQSPQLLIYKVSNRFSGVPDRFSGSGSGTDFTLKISRVEAEDVGVYYCSQNTHVPPTFGQGTKVEIERTVAAPSVFIFPPSDEQLKSGTASVVCLLNNFYPREAKVQWKVDNALQSGNSQESVTEQDSKDSTYSLSSTLTLSKADYEKHKVYACEVTHQGLSSPVTKSFNRGEC
notes: as for B1
As to B4, in the assay with FcγRIa [1], the “Ia/IIb He_1a/2b” value was determined as 0.51 ratio. For the same molecule, the He/Con_1a with FcγRIa [4] is 102 % of control. Further, the He/Con_2b with FcγRIIb [5] was 199 % of control.

B5: GpH7-A5/GpH7-B3 variant L328_04F/GpL16-k0 (antibody, human IgG1, kappa)
heavy 1: not shown
heavy 2: not shown
light: DIVMTQSPLSLPVTPGEPASISCQASESLVHSNRNTYLHWYLQKPGQSPQLLIYKVSNRFSGVPDRFSGSGSGTDFTLKISRVEAEDVGVYYCSQNTHVPPTFGQGTKVEIERTVAAPSVFIFPPSDEQLKSGTASVVCLLNNFYPREAKVQWKVDNALQSGNSQESVTEQDSKDSTYSLSSTLTLSKADYEKHKVYACEVTHQGLSSPVTKSFNRGEC
notes: as for B1
In the case of B5, in the assay with FcγRIa [1], the “Ia/IIb He_1a/2b” value amounted to 0.45 ratio. Besides, the He/Con_1a with FcγRIa [2] and with FcγRIa [4] was 97.9 % of control each time. Besides, the He/Con_2b with FcγRIIb [3] and with FcγRIIb [5] was 219 % of control throughout.

B6: GpH7-A5/GpH7-B3 variant N325_06M/GpL16-k0 (antibody, human IgG1, kappa)
heavy 1: not shown
heavy 2: not shown
light: DIVMTQSPLSLPVTPGEPASISCQASESLVHSNRNTYLHWYLQKPGQSPQLLIYKVSNRFSGVPDRFSGSGSGTDFTLKISRVEAEDVGVYYCSQNTHVPPTFGQGTKVEIERTVAAPSVFIFPPSDEQLKSGTASVVCLLNNFYPREAKVQWKVDNALQSGNSQESVTEQDSKDSTYSLSSTLTLSKADYEKHKVYACEVTHQGLSSPVTKSFNRGEC
notes: as for B1
For the molecule B6, the “Ia/IIb He_1a/2b” value with FcγRIa [1] came to 0.45 ratio. Moreover, the He/Con_1a with FcγRIa [4] was 97.6 % of control. Besides, the He/Con_2b with FcγRIIb [5] was 217 % of control.

B7: GpH7-A5/GpH7-B3 variant L328_15Y/GpL16-k0 (antibody, human IgG1, kappa)
heavy 1: not shown
heavy 2: not shown
light: DIVMTQSPLSLPVTPGEPASISCQASESLVHSNRNTYLHWYLQKPGQSPQLLIYKVSNRFSGVPDRFSGSGSGTDFTLKISRVEAEDVGVYYCSQNTHVPPTFGQGTKVEIERTVAAPSVFIFPPSDEQLKSGTASVVCLLNNFYPREAKVQWKVDNALQSGNSQESVTEQDSKDSTYSLSSTLTLSKADYEKHKVYACEVTHQGLSSPVTKSFNRGEC
notes: as for B1
On to B7, for which, in the assay with FcγRIa [1], the “Ia/IIb He_1a/2b” value was determined as 0.53 ratio. The He/Con_1a in the assay with FcγRIa [4] was 102 % of control. In the assay with FcγRIIb [5], the He/Con_2b was 193 % of control.

B8: GpH7-A5/GpH7-B3 variant N325_04F/GpL16-k0 (antibody, human IgG1, kappa)
heavy 1: not shown
heavy 2: not shown
light: DIVMTQSPLSLPVTPGEPASISCQASESLVHSNRNTYLHWYLQKPGQSPQLLIYKVSNRFSGVPDRFSGSGSGTDFTLKISRVEAEDVGVYYCSQNTHVPPTFGQGTKVEIERTVAAPSVFIFPPSDEQLKSGTASVVCLLNNFYPREAKVQWKVDNALQSGNSQESVTEQDSKDSTYSLSSTLTLSKADYEKHKVYACEVTHQGLSSPVTKSFNRGEC
notes: as for B1
Take B8: in the assay with FcγRIa [1], the “Ia/IIb He_1a/2b” value was determined as 0.65 ratio. Also, the He/Con_1a in the assay with FcγRIa [4] is 93.2 % of control. Further, in the assay with FcγRIIb [5], the He/Con_2b was 143 % of control.

B9: GpH7-A5/GpH7-B3 variant N325_08L/GpL16-k0 (antibody, human IgG1, kappa)
heavy 1: not shown
heavy 2: not shown
light: DIVMTQSPLSLPVTPGEPASISCQASESLVHSNRNTYLHWYLQKPGQSPQLLIYKVSNRFSGVPDRFSGSGSGTDFTLKISRVEAEDVGVYYCSQNTHVPPTFGQGTKVEIERTVAAPSVFIFPPSDEQLKSGTASVVCLLNNFYPREAKVQWKVDNALQSGNSQESVTEQDSKDSTYSLSSTLTLSKADYEKHKVYACEVTHQGLSSPVTKSFNRGEC
notes: as for B1
For the molecule B9, the “Ia/IIb He_1a/2b” value with FcγRIa [1] was 0.5 ratio. The He/Con_1a with FcγRIa [4] was 97.5 % of control. Also, the He/Con_2b with FcγRIIb [5] was 197 % of control.

B10: GpH7-A5/GpH7-B3 variant P331_16H/GpL16-k0 (antibody, human IgG1, kappa)
heavy 1: not shown
heavy 2: not shown
light: DIVMTQSPLSLPVTPGEPASISCQASESLVHSNRNTYLHWYLQKPGQSPQLLIYKVSNRFSGVPDRFSGSGSGTDFTLKISRVEAEDVGVYYCSQNTHVPPTFGQGTKVEIERTVAAPSVFIFPPSDEQLKSGTASVVCLLNNFYPREAKVQWKVDNALQSGNSQESVTEQDSKDSTYSLSSTLTLSKADYEKHKVYACEVTHQGLSSPVTKSFNRGEC
notes: as for B1
B10: the “Ia/IIb He_1a/2b” value in the assay with FcγRIa [1] is 0.8 ratio. Moreover, in the assay with FcγRIa [4], the He/Con_1a was 92.4 % of control. Further, the He/Con_2b with FcγRIIb [5] was 116 % of control.

B11: GpH7-A5/GpH7-B3 variant L328_10E/GpL16-k0 (antibody, human IgG1, kappa)
heavy 1: not shown
heavy 2: not shown
light: DIVMTQSPLSLPVTPGEPASISCQASESLVHSNRNTYLHWYLQKPGQSPQLLIYKVSNRFSGVPDRFSGSGSGTDFTLKISRVEAEDVGVYYCSQNTHVPPTFGQGTKVEIERTVAAPSVFIFPPSDEQLKSGTASVVCLLNNFYPREAKVQWKVDNALQSGNSQESVTEQDSKDSTYSLSSTLTLSKADYEKHKVYACEVTHQGLSSPVTKSFNRGEC
notes: as for B1
As to B11, in the assay with FcγRIa [1], the “Ia/IIb He_1a/2b” value worked out at 0.59 ratio. The He/Con_1a in the assay with FcγRIa [4] was 101 % of control. In addition, the He/Con_2b with FcγRIIb [5] was 172 % of control.

B12: GpH7-A5/GpH7-B3 variant L328_20W/GpL16-k0 (antibody, human IgG1, kappa)
heavy 1: not shown
heavy 2: not shown
light: DIVMTQSPLSLPVTPGEPASISCQASESLVHSNRNTYLHWYLQKPGQSPQLLIYKVSNRFSGVPDRFSGSGSGTDFTLKISRVEAEDVGVYYCSQNTHVPPTFGQGTKVEIERTVAAPSVFIFPPSDEQLKSGTASVVCLLNNFYPREAKVQWKVDNALQSGNSQESVTEQDSKDSTYSLSSTLTLSKADYEKHKVYACEVTHQGLSSPVTKSFNRGEC
notes: as for B1
B12: the “Ia/IIb He_1a/2b” value with FcγRIa [1] amounted to 0.44 ratio. The He/Con_1a with FcγRIa [4] is 103 % of control. Moreover, the He/Con_2b with FcγRIIb [5] was 235 % of control.

B13: GpH7-A5/GpH7-B3 variant L328_14T/GpL16-k0 (antibody, human IgG1, kappa)
heavy 1: not shown
heavy 2: not shown
light: DIVMTQSPLSLPVTPGEPASISCQASESLVHSNRNTYLHWYLQKPGQSPQLLIYKVSNRFSGVPDRFSGSGSGTDFTLKISRVEAEDVGVYYCSQNTHVPPTFGQGTKVEIERTVAAPSVFIFPPSDEQLKSGTASVVCLLNNFYPREAKVQWKVDNALQSGNSQESVTEQDSKDSTYSLSSTLTLSKADYEKHKVYACEVTHQGLSSPVTKSFNRGEC
notes: as for B1
As for B13, the “Ia/IIb He_1a/2b” value with FcγRIa [1] is 0.71 ratio. The He/Con_1a with FcγRIa [4] is 100 % of control. The He/Con_2b with FcγRIIb [5] is 141 % of control.
